Where two headings read alike, the source gives them in different places.
How the values were obtained:
Test in all cases: MST
[1] = biological target: FITC-labeled IST1 (recombinant full-length IST1)
[2] = biological target: FITC-labeled IST1 (recombinant full-length IST1); remark: listed apart in the source
[3] = biological target: FITC-labeled IST1 (recombinant full-length IST1); remark: listed apart in the source

Kd [1]: 20.3 µM
Kd [2]: 153 µM
Kd [3]: 9 µM
B1: CHMP1B (recombinant full length) (natural protein)
chain: MSNMEKHLFNLKFAAKELSRSAKKCDKEEKAEKAKIKKAIQKGNMEVARIHAENAIRQKNQAVNFLRMSARVDAVAARVQTAVTMGKVTKSMAGVVKSMDATLKTMNLEKISALMDKFEHQFETLDVQTQQMEDTMSSTTTLTTPQNQVDMLLQEMADEAGLDLNMELPQGQTGSVGTSVASAEQDELSQRLARLRDQV

Reference: paper doi:10.1101/2023.08.28.555152
